Data from publication PMC9871336, “Positive charge in the K-loop of the kinesin-3 motor KIF1A regulates superprocessivity by enhancing microtubule affinity in the one-head–bound state” (The Journal of Biological Chemistry, 2022).

B1: 1A393 (Rattus norvegicus) (protein)
chain: MAGASVKVAVRVRPFNSREMSRDSKCIIQMSGSTTTIVNPKQPKETPKSFSFDYSYWSHTSPEDINYASQKQVYRDIGEEMLQHAFEGYNVCIFAYGQTGAGKSYTMMGKQEKDQQGIIPQLCEDLFSRINDTTNDNMSYSVEVSYMEIYCERVRDLLNPKNKGNLRVREHPLLGPYVEDLSKLAVTSYNDIQDLMDSGNKARTVAATNMNETSSRSHAVFNIIFTQKRHDAETNITTEKVSKISLVDLAGSERADSTGAKGTRLKEGANINKSLTTLGKVISALAEMDSGPNKNKKKKKTDFIPYRDSVLTWLLRENLGGNSRTAMVAALSPADINYDETLSTLRYADRAKQIRCNAIINEDPNNKLIRELKDEVTRLRDLLYAQGLGDITD
notes: KIF1A 1-393 (motor, neck linker, neck-coil) fused to D. melanogaster KHC neck-coil 345-406 for dimerization (biochemical version; 345-560 plus GFP for single-molecule); C-terminal His6; E. coli; dimer
B2: 1A368 (Rattus norvegicus) (protein)
chain: MAGASVKVAVRVRPFNSREMSRDSKCIIQMSGSTTTIVNPKQPKETPKSFSFDYSYWSHTSPEDINYASQKQVYRDIGEEMLQHAFEGYNVCIFAYGQTGAGKSYTMMGKQEKDQQGIIPQLCEDLFSRINDTTNDNMSYSVEVSYMEIYCERVRDLLNPKNKGNLRVREHPLLGPYVEDLSKLAVTSYNDIQDLMDSGNKARTVAATNMNETSSRSHAVFNIIFTQKRHDAETNITTEKVSKISLVDLAGSERADSTGAKGTRLKEGANINKSLTTLGKVISALAEMDSGPNKNKKKKKTDFIPYRDSVLTWLLRENLGGNSRTAMVAALSPADINYDETLSTLRYADRAKQIRCNAIINEDPNNKL
notes: KIF1A 1-368 (motor, neck linker) fused to D. melanogaster KHC neck-coil 345-406 for dimerization (biochemical version; 345-560 plus GFP for single-molecule); C-terminal His6; E. coli; dimer

Key:
1A-K1L12 = test system: T1, 1A-K1L12; experiment: stopped-flow ATP-triggered half-site release of mant-ADP; format: biochemical, Rattus norvegicus; conditions: taxol-stabilized microtubules; 1HB complex with mant-ADP; Mg-ATP varied; half-maximal ATP for mant-ADP release, not steady-state ATPase
T1 construct: gene Kif1a; fused to D. melanogaster KHC neck-coil for dimerization; C-terminal His6; E. coli

[1] = substrate: Nc1ncnc2c1ncn2[C@@H]1O[C@H](COP(=O)(O)OP(=O)(O)OP(=O)(O)O)[C@@H](O)[C@H]1O; experiment: as above; format: biochemical, Rattus norvegicus; conditions: taxol-stabilized microtubules; 1HB complex with mant-ADP; Mg-ATP varied; half-maximal ATP for mant-ADP release, not steady-state ATPase

Molecule	Km (1A-K1L12) [µM]	Km [1] [µM]
Nc1ncnc2c1ncn2[C@@H]1O[C@H](COP(=O)(O)OP(=O)(O)OP(=O)(O)O)[C@@H](O)[C@H]1O [ATP]	64 ± 28	
B1		96 ± 53
B2		119 ± 20
